Where two headings read alike, the source gives them in different places.

This note sets out measurements from article PMC5216914.

cSrc: Y527F: the enzymatic_activity entry (phosphorylation at Y527) is recorded as “increases”. Consider cSrc: Y416F, for which the enzymatic_activity result (phosphorylation at Y416) was “abolishes”.
